Assay results reported in patent publication US20180193457A1 (University of Washington, published 2018).

Columns and labels:
[1] = target: T1, wild-type FimH adhesin variant of the uropathogenic E. coli strain J96 (FimH^wt) (uropathogenic E. coli strain J96, UniProt P08191 22-300); test: SPR2 (Analytical Biopharmacy Core), FimH^wt fimbriae on CM5 chip, mAb as analyte, 1:1 Langmuir model
T1 construct: mature; also called fimbrial FimH^wt; E. coli FimH

[2] = target: T1, wild-type FimH adhesin variant of the …; test: cell-based or functional assay

B1: mAb926 (antibody, V domains shown)
VH: QVQLQQSGAELATPGASVKMSCKASGYTSTNYWIHWVKQRPGQGLEWIGYINPTSGYTEYNQNFKDKATLTADKSSSTAYMQLTSLTSEDSAVYYCARGVIRDFWGQGTTLTVSS
VL: DVLMTQTPLSLPVSLGDQASISCRSSQNIVHNNGNTYLEWYLQSPGQSPKLLIYKVSNRFSGVPDRFSGSGSGTDFTLKISRVEAEDLGVYYCFQGSHVPFTFGSGTKLEIK
notes: also called mA926; mAb296
For B1, the Kd [1] was 0.22 nM and the “half-maximal inhibitory concentration (IC50) of bacterial adhesion to mannosylated (yeast mannan) surfaces” value [2] was 0.4 nM.
